System: Escherichia coli TOP10
Experiment: shrunken log2 fold change of peptide-encoding DNA abundance (4.5 h post-induction vs induction); higher = less antimicrobial activity (less host growth inhibition)
Details: time post-induction: 4.5 h; library: site-saturation at positions 5, 18, 19, 20
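Note: peptides expressed intracellularly from a pBAD plasmid library in pooled LB shake-flask culture, induced with 0.3% L-arabinose, DNA abundance read by NGS, three biological replicates, DESeq2 with apeglm shrinkage.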

Row | Sequence | shrunken log2 fold change
1 | RRIRRRPPRLPRPRPRPMYIPRP | -0.73
2 | RRIRERPPRLPRPRPRPIGQPRP | 0.000367
3 | RRIRKRPPRLPRPRPRPDQRPRP | 0.458
4 | RRIRFRPPRLPRPRPRPHSVPRP | 0.036
5 | RRIRSRPPRLPRPRPRPDAWPRP | 0.545
6 | RRIRQRPPRLPRPRPRPIMNPRP | -1.23
7 | RRIRIRPPRLPRPRPRPMDAPRP | 0.0153
8 | RRIRWRPPRLPRPRPRPTIKPRP | -0.125
9 | RRIRVRPPRLPRPRPRPIKFPRP | 0.0613
10 | RRIRVRPPRLPRPRPRPTINPRP | -0.286
11 | RRIRARPPRLPRPRPRPRMTPRP | 1.04
12 | RRIRFRPPRLPRPRPRPEKDPRP | -0.227
13 | RRIRNRPPRLPRPRPRPSIKPRP | -0.0594
14 | RRIRCRPPRLPRPRPRPMFHPRP | -0.723
15 | RRIRGRPPRLPRPRPRPCWGPRP | 0.157
16 | RRIRNRPPRLPRPRPRPRAMPRP | 0.37
17 | RRIRQRPPRLPRPRPRPGTHPRP | -0.00939
18 | RRIRVRPPRLPRPRPRPKATPRP | 0.266
19 | RRIRKRPPRLPRPRPRPNVNPRP | -0.0135
20 | RRIRWRPPRLPRPRPRPDKWPRP | -0.161
21 | RRIRYRPPRLPRPRPRPQMAPRP | -1.66
22 | RRIRRRPPRLPRPRPRPYLWPRP | -0.439

Row | Sequence | shrunken log2 fold change
23 | RRIRWRPPRLPRPRPRPKFTPRP | -0.119
24 | RRIRHRPPRLPRPRPRPWICPRP | -0.0191
25 | RRIRARPPRLPRPRPRPKAQPRP | 1.26
26 | RRIRKRPPRLPRPRPRPTYIPRP | -0.154
27 | RRIRQRPPRLPRPRPRPSLYPRP | -0.233
28 | RRIRVRPPRLPRPRPRPYTIPRP | -0.736
29 | RRIRFRPPRLPRPRPRPGDPPRP | 0.566
30 | RRIRYRPPRLPRPRPRPGARPRP | -0.00825
31 | RRIRKRPPRLPRPRPRPLDPPRP | 0.613
32 | RRIRSRPPRLPRPRPRPNFHPRP | -0.171
33 | RRIRIRPPRLPRPRPRPYLMPRP | -0.143
34 | RRIRKRPPRLPRPRPRPLVCPRP | 0.191
35 | RRIRGRPPRLPRPRPRPWRFPRP | 0.425
36 | RRIRWRPPRLPRPRPRPVVLPRP | -0.0385
37 | RRIRHRPPRLPRPRPRPNPIPRP | -0.023
38 | RRIRGRPPRLPRPRPRPYGVPRP | -0.128
39 | RRIRKRPPRLPRPRPRPIHYPRP | -0.15
40 | RRIRLRPPRLPRPRPRPRCCPRP | 0.0851
41 | RRIRRRPPRLPRPRPRPWYQPRP | -3.03
42 | RRIRRRPPRLPRPRPRPGMDPRP | 0.0814
43 | RRIRPRPPRLPRPRPRPWQNPRP | -0.136
44 | RRIRNRPPRLPRPRPRPYERPRP | 0.0318

Row | Sequence | shrunken log2 fold change
45 | RRIRERPPRLPRPRPRPVGAPRP | 0.392
46 | RRIRDRPPRLPRPRPRPPIPPRP | -0.0554
47 | RRIRSRPPRLPRPRPRPIQVPRP | 0.0973
48 | RRIRCRPPRLPRPRPRPLMSPRP | -0.289
49 | RRIRTRPPRLPRPRPRPCLPPRP | -0.0953
50 | RRIRRRPPRLPRPRPRPFKAPRP | 0.182
51 | RRIRLRPPRLPRPRPRPINIPRP | -0.735
52 | RRIRPRPPRLPRPRPRPCKWPRP | -0.32
53 | RRIRHRPPRLPRPRPRPRYDPRP | -0.0205
54 | RRIRWRPPRLPRPRPRPFMGPRP | 0.0373
55 | RRIRNRPPRLPRPRPRPCSYPRP | -0.212
56 | RRIRFRPPRLPRPRPRPCVKPRP | -0.123
57 | RRIRERPPRLPRPRPRPLHQPRP | -0.0505
58 | RRIRVRPPRLPRPRPRPCRLPRP | -0.0106
59 | RRIRTRPPRLPRPRPRPWACPRP | -0.151
60 | RRIRLRPPRLPRPRPRPFSYPRP | -0.747
61 | RRIRLRPPRLPRPRPRPIRPPRP | -0.113
62 | RRIRTRPPRLPRPRPRPPTQPRP | 0.282
63 | RRIRQRPPRLPRPRPRPDNLPRP | -0.348
64 | RRIRFRPPRLPRPRPRPQRTPRP | -0.101
65 | RRIRNRPPRLPRPRPRPEACPRP | 0.0475
66 | RRIRYRPPRLPRPRPRPTCVPRP | -0.503

Row | Sequence | shrunken log2 fold change
67 | RRIRRRPPRLPRPRPRPDWTPRP | -0.133
68 | RRIRFRPPRLPRPRPRPPRSPRP | 0.488
69 | RRIRIRPPRLPRPRPRPDGVPRP | -0.0166
70 | RRIRQRPPRLPRPRPRPGDNPRP | -0.203
71 | RRIRVRPPRLPRPRPRPYSHPRP | -1.25
72 | RRIRCRPPRLPRPRPRPNHDPRP | -0.589
73 | RRIRMRPPRLPRPRPRPKWIPRP | -0.124
74 | RRIRCRPPRLPRPRPRPWTNPRP | -0.0849
75 | RRIRLRPPRLPRPRPRPINKPRP | -0.617
76 | RRIRKRPPRLPRPRPRPMRRPRP | 0.762
77 | RRIRRRPPRLPRPRPRPSNPPRP | -0.203
78 | RRIRYRPPRLPRPRPRPGDTPRP | -0.276
79 | RRIRCRPPRLPRPRPRPSYTPRP | -0.748
80 | RRIRLRPPRLPRPRPRPTNPPRP | -0.348
81 | RRIRTRPPRLPRPRPRPSHNPRP | -0.681
82 | RRIRQRPPRLPRPRPRPPNYPRP | 0.195
83 | RRIRPRPPRLPRPRPRPTFNPRP | -0.155
84 | RRIRHRPPRLPRPRPRPKRWPRP | 0.293
85 | RRIRNRPPRLPRPRPRPGEKPRP | -0.01
86 | RRIRCRPPRLPRPRPRPWVYPRP | -0.0957
87 | RRIRRRPPRLPRPRPRPHGHPRP | 0.224
88 | RRIRDRPPRLPRPRPRPWLCPRP | -0.0939

Row | Sequence | shrunken log2 fold change
89 | RRIRCRPPRLPRPRPRPPFQPRP | 0.149
90 | RRIRNRPPRLPRPRPRPSTMPRP | -1.15
91 | RRIRWRPPRLPRPRPRPPNDPRP | 0.0849
92 | RRIRNRPPRLPRPRPRPGREPRP | 0.588
93 | RRIRKRPPRLPRPRPRPGQSPRP | 0.306
94 | RRIRLRPPRLPRPRPRPKWQPRP | -0.0304
95 | RRIRMRPPRLPRPRPRPYLHPRP | -0.437
96 | RRIRTRPPRLPRPRPRPIILPRP | -0.25
97 | RRIRSRPPRLPRPRPRPKAWPRP | 0.148
98 | RRIRIRPPRLPRPRPRPHLWPRP | -0.256
99 | RRIRPRPPRLPRPRPRPTHKPRP | 0.283
100 | RRIRERPPRLPRPRPRPDSNPRP | -0.00994
101 | RRIRIRPPRLPRPRPRPMAKPRP | -0.00776
102 | RRIRNRPPRLPRPRPRPWTYPRP | -0.351
103 | RRIRCRPPRLPRPRPRPTMNPRP | -0.421
104 | RRIRQRPPRLPRPRPRPCHRPRP | 0.0197
105 | RRIRQRPPRLPRPRPRPPPLPRP | 0.977
106 | RRIRNRPPRLPRPRPRPKKKPRP | 0.011
107 | RRIRWRPPRLPRPRPRPLRHPRP | 0.751
108 | RRIRFRPPRLPRPRPRPLRAPRP | 0.821
109 | RRIRCRPPRLPRPRPRPTCDPRP | 0.187

— the supplement of paper PMC9112550, “Optimization of the antimicrobial peptide Bac7 by deep mutational scanning” (BMC Biology, 2022)
